Measurements: patent publication US20190336544A1

Experiments:
[1] = molecular target: IgG (coating control in the ELISA binding assays); assay: ELISA; IgG coated, culture supernatant
[2] = molecular target: T1, mouseCD47, coated on ELISA plates (mouse) (UniProt Q61735); assay: ELISA; mCD47 coated, culture supernatant
T1 sequence (looked up): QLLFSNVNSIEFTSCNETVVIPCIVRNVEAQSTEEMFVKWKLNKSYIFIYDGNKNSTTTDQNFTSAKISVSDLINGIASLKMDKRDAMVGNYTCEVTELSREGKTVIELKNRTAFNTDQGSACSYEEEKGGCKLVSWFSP

B1: secreted anti-mCD47 scFv (αmCD47scFv-V5-HIS, SYN3161) (scFv, from a related filing)
scFv: QVKLLQSGAALVKPGASVKMSCQASGYSFTDYWVTWVKQSHGQSLEWIGEIYPSNTVTNFNDNFKGKATLTVDKSTSTAYMELSRLTSEDSAIYYCTRIGNSGYRVGWFIYWGQGTLVTVLSGGGGSGGGGSGGGGSDTVLTQSPALAVSPGERVTISCKASESVSSHMHWYQQKPGQQPKLLIYKASNLASGVPARFSGSGSGTDFTLTIDPVEADDTATYFCQQGWNGPFTFGAGTRLELKRADAAGSGELGGSGKPIPNPLLGLDSTGSGHHHHHH
ELISA signal (quantity not given) [1]: 0.067
ELISA signal (quantity not given) [2]: 0.527
